From PMC6920703, “Measuring glycolytic flux in single yeast cells with an orthogonal synthetic biosensor” (Molecular Systems Biology, 2019)
Entries after “also recorded” stand apart in the source; their conditions may differ.

What was measured:
[1] = tested on: CggR R250A (Bacillus subtilis); experiment: EMSA; details: 20 mM FBP; 35 nM DNA, 2 or 4 uM CggR, 10 mM Na3PO4 pH 7.8, 100 mM NaCl, 1 mM EDTA, 1 mM DTT, 5% glycerol, 1 ug salmon sperm DNA, 20 min room temperature; 5% native PAGE …
[2] = tested on: CggR wild type (Bacillus subtilis); experiment: EMSA; details: 20 mM FBP; 35 nM DNA, 2 or 4 uM CggR, 10 mM Na3PO4 pH 7.8, 100 mM NaCl, 1 mM EDTA, 1 mM DTT, 5% glycerol, 1 ug salmon sperm DNA, 20 min room temperature; 5% native PAGE …
[3] = Thermal shift assay: CggR-FBP affinity constants (KD) from melting curves; assay type: binding; details: for KD ratio change (KD of the CggR mutant variant / KD of the wild type) / KD ratio change: desired/undesired sign: Fig 5D; for Obtained effects on affinity for FBP: classification based on thermal shift assays; on KD ratio change: desired/undesired sign: key: +: A plus sign indicates desired characteristics achieved in the mutants; -: a minus sign indicates undesired effects of the mutations
Experimental: The K D of the wild type and mutant CggR variants was calculated by fitting the T m data into a simple cooperative model using the GraphPad software.

[4] = tested on: DNA fragments containing the CggR operator sites; experiment: Electrophoresis mobility shift assay: CggR binding to DNA; details: for DNA binding affinity: desired/undesired sign / DNA binding affinity: Fig 5D; for DNA binding affinity: compared with wild type; for CggR binding to DNA in the absence of FBP: 0 mM FBP, Fig 5C; on DNA binding affinity: desired/undesired sign: key: +: A plus sign indicates desired characteristics achieved in the mutants; -: a minus sign indicates undesired effects of the mutations
Experimental: Fluorescently labeled DNA fragments were generated by hybridization of single‐stranded forward (labeled with Alexa Fluor 647 at the 5′ end) and reverse (unlabeled) oligonucleotides containing the CggR operator sites. The hybridization protocol and respective hybridization efficiency control were performed as described elsewhere (Bley Folly et al, 2018).
Hybridized labeled DNA fragments (final concentration 35 nM) were incubated 20 min at room temperature with 2 or 4 μM of the purified wild type or mutant CggR variants, in the presence of different concentrations of FBP (0; 0.5; 1; 2.5; 5; 10; and 20 mM) in a final volume of 25 μl in binding buffer (10 mM Na3PO4 pH 7.8, 100 mM NaCl, 1 mM EDTA, 1 mM DTT, 5% glycerol) including 1 μg of salmon sperm DNA. The sample mixtures were loaded in a 5% native polyacrylamide gel and run in native conditions in the dark with constant voltage (200V) at 4°C for 2 h.
Fluorescence was imaged using the Typhoon 9400 (Amersham Biosciences, UK) with the excitation set to 650 nm and the emission set to 655 nm. The background‐subtracted total intensities of the protein–DNA complex and the free‐DNA bands were assessed using ImageJ (Abràmoff et al, 2004), and bound DNA/total DNA was calculated by dividing the intensity of the protein–DNA complex band by the total DNA (i.e., the sum of the signal from the protein–DNA complex band plus the one from free DNA).

[5] = Thermal shift assay: protein stability (melting temperature) of CggR variants; details: for Protein stability: desired/undesired sign / Protein stability: Fig 5D; for Protein stability: compared with wild type
Experimental: A sample mixture of 25 μl final volume containing 5 μl of 5× SYPRO Orange (Molecular Probes; Eugene, OR), 0.2 mg of the purified CggR, and different concentrations of the FBP metabolite (0; 0.01; 0.1; 0.5; 0.75; 1; 2.5; 10; 20; and 36 mM) was prepared on ice. Control experiments were performed to test the effect of the counter ion NaCl present in FBP salt solutions. Here, the NaCl was added instead of FBP to a final concentration threefold higher than the FBP itself (0; 0.03; 0.3; 1.5; 2.25; 3; 7.5; 30; 60; and 108 mM).
Sample mixtures were transferred into 96‐well PCR plates (Bio‐Rad, CA, USA), sealed with Optical‐Quality Sealing Tape (Bio‐Rad, CA, USA), and analyzed in a CFX96 Real‐Time System combined with C1000 Touch Thermal Cycler (Bio‐Rad, CA, USA). Analysis consisted of a single heating cycle from 20 to 99°C with increments of 0.5°C steps, followed by fluorescence intensity monitoring with a charge‐coupled device camera. The wavelengths for excitation and emission were 490 and 575 nm, respectively. The melting temperature (T m) was automatically calculated by the control software and corresponded to the local maximum of the first derivative of measured fluorescence versus temperature.

[6] = KD for FBP relative to wild type CggR (1 mM)

Row | Molecule | KD ratio change (KD of the CggR mutant variant / KD of the wild type) [3] | KD ratio change: desired/undesired sign [3] | fold lower KD than wild type [3, 6] [fold] | Obtained effects on affinity for FBP [3] | Obtained effects on DNA binding affinity [4] | DNA binding affinity: desired/undesired sign [4] | DNA binding affinity [4] | CggR binding to DNA in the absence of FBP [4] | CggR remained bound to DNA at high FBP levels ([4]; 20 mM FBP relative to bound fraction at 0 mM FBP) | fold increase of KD over wild type [3, 6] [fold] | binding signal (% of CggR remaining bound vs 0 mM FBP) [1] | binding signal (% of CggR remaining bound vs 0 mM FBP) [2] | Obtained effects on stability [5] | Protein stability: desired/undesired sign [5] | Protein stability [5]
1 | CggR operator duplex (CggRO) |  |  |  |  |  |  |  |  |  |  | 30 | 30 |  |  | 
2 | T151S: CggR mutant, position 151 Thr to Ser, at the CggR-FBP-binding site (protein, UniProt O32253 1-340, looked up, variant T151S) Central glycolytic genes …: MNQLIQAQKKLLPDLLLVMQKRFEILQYIRLTEPIGRRSLSASLGISERVLRGEVQFLKEQNLVDIKTNGMTLTEEGYELLSVLEDTMKDVLGLTLLEKTLKERLNLKDAIIVSGDSDQSPWVKKEMGRAAVACMKKRFSGKNIVAVTGGSTIEAVAEMMTPDSKNRELLFVPARGGLGEDVKNQANTICAHMAEKASGTYRLLFVPGQLSQGAYSSIIEEPSVKEVLNTIKSASMLVHGIGEAKTMAQRRNTPLEDLKKIDDNDAVTEAFGYYFNADGEVVHKVHSVGMQLDDIDAIPDIIAVAGGSSKAEAIEAYFKKPRNTVLVTDEGAAKKLLRDE | 0.90 | - | 1.1 | mild affinity increase | No effect | + | Same range |  |  |  |  |  | No effect | + | Same range
3 | R175K: CggR mutant, position 175 Arg to Lys, at the CggR-FBP-binding site (protein, UniProt O32253 1-340, looked up, variant R175K) Central glycolytic genes …: MNQLIQAQKKLLPDLLLVMQKRFEILQYIRLTEPIGRRSLSASLGISERVLRGEVQFLKEQNLVDIKTNGMTLTEEGYELLSVLEDTMKDVLGLTLLEKTLKERLNLKDAIIVSGDSDQSPWVKKEMGRAAVACMKKRFSGKNIVAVTGGTTIEAVAEMMTPDSKNRELLFVPAKGGLGEDVKNQANTICAHMAEKASGTYRLLFVPGQLSQGAYSSIIEEPSVKEVLNTIKSASMLVHGIGEAKTMAQRRNTPLEDLKKIDDNDAVTEAFGYYFNADGEVVHKVHSVGMQLDDIDAIPDIIAVAGGSSKAEAIEAYFKKPRNTVLVTDEGAAKKLLRDE | 0.98 | - |  | negligible affinity increase | Disrupted affinity | - | No binding | did not bind to the DNA anymore |  |  |  |  | No effect | + | Same range
4 | E269Q: CggR mutant, position 269 Glu to Gln, at the CggR-FBP-binding site (protein, UniProt O32253 1-340, looked up, variant E269Q) Central glycolytic genes …: MNQLIQAQKKLLPDLLLVMQKRFEILQYIRLTEPIGRRSLSASLGISERVLRGEVQFLKEQNLVDIKTNGMTLTEEGYELLSVLEDTMKDVLGLTLLEKTLKERLNLKDAIIVSGDSDQSPWVKKEMGRAAVACMKKRFSGKNIVAVTGGTTIEAVAEMMTPDSKNRELLFVPARGGLGEDVKNQANTICAHMAEKASGTYRLLFVPGQLSQGAYSSIIEEPSVKEVLNTIKSASMLVHGIGEAKTMAQRRNTPLEDLKKIDDNDAVTQAFGYYFNADGEVVHKVHSVGMQLDDIDAIPDIIAVAGGSSKAEAIEAYFKKPRNTVLVTDEGAAKKLLRDE | 0.79 | - |  | mild affinity increase | Disrupted affinity | - | No binding | did not bind to the DNA anymore |  |  |  |  | Strong decrease |  | Very low
5 | T152S: CggR mutant, position 152 Thr to Ser, at the CggR-FBP-binding site (protein, UniProt O32253 1-340, looked up, variant T152S) Central glycolytic genes …: MNQLIQAQKKLLPDLLLVMQKRFEILQYIRLTEPIGRRSLSASLGISERVLRGEVQFLKEQNLVDIKTNGMTLTEEGYELLSVLEDTMKDVLGLTLLEKTLKERLNLKDAIIVSGDSDQSPWVKKEMGRAAVACMKKRFSGKNIVAVTGGTSIEAVAEMMTPDSKNRELLFVPARGGLGEDVKNQANTICAHMAEKASGTYRLLFVPGQLSQGAYSSIIEEPSVKEVLNTIKSASMLVHGIGEAKTMAQRRNTPLEDLKKIDDNDAVTEAFGYYFNADGEVVHKVHSVGMQLDDIDAIPDIIAVAGGSSKAEAIEAYFKKPRNTVLVTDEGAAKKLLRDE | 0.62 | - | 1.6 |  | No effect | + | Same range |  |  |  |  |  | No effect | + | Same range
6 | R250A: CggR mutant, position 250 Arg to Ala; selected for the glycolytic flux biosensor (protein, UniProt O32253 1-340, looked up, variant R250A) Central glycolytic genes …: MNQLIQAQKKLLPDLLLVMQKRFEILQYIRLTEPIGRRSLSASLGISERVLRGEVQFLKEQNLVDIKTNGMTLTEEGYELLSVLEDTMKDVLGLTLLEKTLKERLNLKDAIIVSGDSDQSPWVKKEMGRAAVACMKKRFSGKNIVAVTGGTTIEAVAEMMTPDSKNRELLFVPARGGLGEDVKNQANTICAHMAEKASGTYRLLFVPGQLSQGAYSSIIEEPSVKEVLNTIKSASMLVHGIGEAKTMAQARNTPLEDLKKIDDNDAVTEAFGYYFNADGEVVHKVHSVGMQLDDIDAIPDIIAVAGGSSKAEAIEAYFKKPRNTVLVTDEGAAKKLLRDE | 1.52 | + |  | desired decrease in FBP affinity; also recorded: strong affinity decrease | No effect | + | Same range | similar | around 30% |  |  |  | No effect |  | Same range
7 | T151V: CggR mutant, position 151 Thr to Val, at the CggR-FBP-binding site (protein, UniProt O32253 1-340, looked up, variant T151V) Central glycolytic genes …: MNQLIQAQKKLLPDLLLVMQKRFEILQYIRLTEPIGRRSLSASLGISERVLRGEVQFLKEQNLVDIKTNGMTLTEEGYELLSVLEDTMKDVLGLTLLEKTLKERLNLKDAIIVSGDSDQSPWVKKEMGRAAVACMKKRFSGKNIVAVTGGVTIEAVAEMMTPDSKNRELLFVPARGGLGEDVKNQANTICAHMAEKASGTYRLLFVPGQLSQGAYSSIIEEPSVKEVLNTIKSASMLVHGIGEAKTMAQRRNTPLEDLKKIDDNDAVTEAFGYYFNADGEVVHKVHSVGMQLDDIDAIPDIIAVAGGSSKAEAIEAYFKKPRNTVLVTDEGAAKKLLRDE | 2.59 | + |  | strong affinity decrease | Reduced affinity | - | Reduced | only bound with lower affinity |  | 2.6 |  |  | Strong decrease |  | Very low
